# Test system: primary human B cells
# Experiment: Expansion and maintenance of BCL-6/BCL-XL/CD40L transduced primary human B cells in culture
# Type: cell-based
# Details: BCL-6/BCL-xL transduced B cells, IL-21 50 ng/mL, absence of L-cells
# Description: The activated, isolated B cells (FIG. 7A) were stably transduced with BCL-6/BCL-xL or a combination of BCL-6/BCL-XL and CD40L based protocols for retroviral transduction of primary B cells have been described in the literature (e.g. Kwakkenbos et al. Nat Med 2010) and as described in this invention (Example 10).
# After 72 hours BCL-6/BCL-XL modified B cells were harvested, split and either cultured in the absence of L-cells or cultured on hCD40L expressing L cells. BCL-6/BCL-xL and CD40L transduced B cells are cultured in complete B cell medium supplemented with 50 ng/mL IL-21 in the absence of L-cells. […] CD40L expression on the B cells is measured on a flow cytometer using an antibody directed against CD154 (FIG. 7C).
# B cells were isolated from healthy donor PBMC using the magnetic bead-based cell separation method from Miltenyi. […] Purity of the isolated B cells was measured by FACS using antibodies directed against CD3 and CD20. […] Expression of BCL6/BCL-xL was measured by FACS by GFP expression. […] Expression of BCL6/BCL-xL was measured by GFP expression and expression of CD40L was measured using an antibody directed against CD154, analyzed by FACS. […] Cells were split twice a week at a concentration of 0.2e6/mL cells and cell viability was analyzed. […] The total cumulative cell counts was calculated based on counts that were measured while splitting the cells. […]
molecule,measurement,value
CD40L transgene: hCD40L transgene expressed in BCL-6/BCL-xL immortalized B cells (protein) DNA: MIETYNQTSPRSAATGLPISMKIFMYLLTVFLITQMIGSALFAVYLHRRLDKIEDERNLHEDFVFMKTIQRCNTGERSLSLLNCEEIKSQFEGFVKDIMLNKEETKKENSFEMQKGDQNPQIAAHVISEASSKTTSVLQWAEKGYYTMSNNLVTLENGKQLTVKRQGLYYIYAQVTFCSNREASSQAPFIASLCLKSPGRFERILLRAANTHSSAKPCGQQSIHLGGVFELQPGASVFVNVTDPSQVSHGTGFTSFGLLKL,B cell expansion without CD40L-expressing feeder cells,can be used as a replacement for CD40L-expressing feeder cells for expansion

# From patent US20220228164A1, “ENGINEERED ANTIGEN PRESENTING CELLS” (Neogene Therapeutics B.V., priority 2021, published 2022)
